Holding throughout (assay): cell-based or functional assay
Experiment [1] deals with CCR7 (mouse) (UniProt P47774).
Experiment [2] deals with CXCR3 (mouse) (UniProt O88410).
Experiment [3] addresses CXCR4 (mouse) (UniProt P70658).
Chain of UniProt P70658 (P70658 whole entry): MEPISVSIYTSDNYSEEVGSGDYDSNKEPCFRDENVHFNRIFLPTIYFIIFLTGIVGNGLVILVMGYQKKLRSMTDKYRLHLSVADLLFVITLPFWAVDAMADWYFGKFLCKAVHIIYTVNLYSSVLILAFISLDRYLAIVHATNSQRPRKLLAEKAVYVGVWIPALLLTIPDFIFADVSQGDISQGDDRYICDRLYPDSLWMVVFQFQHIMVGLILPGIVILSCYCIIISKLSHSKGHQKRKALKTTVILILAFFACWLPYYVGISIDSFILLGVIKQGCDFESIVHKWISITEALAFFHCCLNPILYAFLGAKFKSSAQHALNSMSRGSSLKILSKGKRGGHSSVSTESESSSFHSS

Chain of UniProt O88410 (O88410 whole entry): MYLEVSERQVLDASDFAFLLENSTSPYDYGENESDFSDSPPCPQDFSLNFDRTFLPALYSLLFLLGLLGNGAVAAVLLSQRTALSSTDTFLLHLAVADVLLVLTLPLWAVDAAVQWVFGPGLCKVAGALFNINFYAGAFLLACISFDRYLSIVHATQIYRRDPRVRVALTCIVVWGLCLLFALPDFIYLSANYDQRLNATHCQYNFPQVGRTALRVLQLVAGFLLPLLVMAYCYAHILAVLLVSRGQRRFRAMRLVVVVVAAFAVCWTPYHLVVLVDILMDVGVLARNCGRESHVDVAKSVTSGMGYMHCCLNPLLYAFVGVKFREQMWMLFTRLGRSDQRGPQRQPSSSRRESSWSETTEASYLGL
Chain of UniProt P47774 (P47774 25-378): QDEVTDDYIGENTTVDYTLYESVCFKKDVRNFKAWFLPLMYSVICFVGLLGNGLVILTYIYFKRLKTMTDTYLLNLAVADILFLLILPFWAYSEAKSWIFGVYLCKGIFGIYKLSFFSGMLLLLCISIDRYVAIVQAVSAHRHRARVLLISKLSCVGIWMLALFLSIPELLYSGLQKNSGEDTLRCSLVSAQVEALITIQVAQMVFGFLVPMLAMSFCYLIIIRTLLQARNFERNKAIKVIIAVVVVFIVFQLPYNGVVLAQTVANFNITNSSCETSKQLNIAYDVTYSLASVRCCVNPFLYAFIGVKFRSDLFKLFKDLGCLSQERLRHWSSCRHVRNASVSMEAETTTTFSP

In experiment [1], CCL21 (ligand) came in with a migration of WT GMP- and CMP-derived PACs in a transwell Boyden chamber, fold over BSA control of 4 fold.

On to CXCL10 (ligand), for which, in experiment [2], the migration of WT GMP- and CMP-derived PACs in a transwell Boyden chamber, fold over BSA control is 4 fold.

Take SDF-1α (ligand): in experiment [3], the migration of WT CMP-derived PACs in a transwell Boyden chamber, fold over BSA control was 23 fold and the migration of WT GMP-derived PACs in a transwell Boyden chamber, fold over BSA control amounted to 19 fold.
